Experimental findings from US5723594 are described below.

The data set concerns the target PDGF-AB (Homo sapiens) (UniProt P04085+P01127). Description: filter.

Sequence of PDGF-AB (Homo sapiens) (P01127 82-190, chain 2 of 2, other chains not shown): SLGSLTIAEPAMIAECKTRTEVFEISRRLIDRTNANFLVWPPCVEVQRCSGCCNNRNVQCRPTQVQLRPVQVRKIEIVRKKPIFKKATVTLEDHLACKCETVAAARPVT

For the sequence “ATCCGCCTGATTAGCGATACTNNNNNNNNNNNNNNNNNNNNNNNNNNNNNNNNNNNNNNNNACTTGAGCAAAATCACCTGCAGGGG [ssDNA SELEX round 12 pool]”, the Kd (round 12 enriched pool, data not shown) is 0.05 nM. Sequence “ATCCGCCTGATTAGCGATACTNNNNNNNNNNNNNNNNNNNNNNNNNNNNNNNNNNNNNNNNACTTGAGCAAAATCACCTGCAGGGG [random ssDNA library]” gave a binding signal (fold weaker than round 12 pool) (initial random library) of 700.

One may read the Kd as the free concentration of one partner at which half of the binding sites on the other are occupied at equilibrium, for simple one-to-one binding. Higher therefore signals weaker binding.
